Results from patent publication EP3922644A2 (The Texas A&M University System, dated 2021).

Columns and labels:
human fibrinogen (human) [1] = target: human fibrinogen (human) (UniProt P02671); test: ELISA, GST-tagged Coa fragment on immobilized Fg
human fibrinogen (human) [2] = target: human fibrinogen (human) (UniProt P02671); test: apparent affinity, ELISA, GST-tagged Coa fragment on immobilized Fg
human fibrinogen (human) [3] = target: human fibrinogen (human) (UniProt P02671); test: apparent KD, solid phase binding assay, DC2-Fg coated 1 µg/well, Fg titrated 0-0.3 µM
human fibrinogen (human) [4] = target: human fibrinogen (human) (UniProt P02671); test: apparent KD, solid phase binding assay, Efb coated 1 µg/well, Fg titrated 0-0.3 µM
[5] = target: Fibrinogen-D fragment (human, plasmin digest) (human) (UniProt P02671); test: ITC (VP-ITC), peptide titrated into 10 µM Fg-D, one-site model, 27°C
[6] = target: Efb-A30-67, GST-tagged recombinant protein (Staphylococcus aureus strain Newman, UniProt P08515 1-218 = GST; A6QG59 30-67); test: apparent Kd from half maximum binding in ELISA
[7] = target: T1, Efb-N30-105, His-tagged recombinant protein (Staphylococcus aureus strain Newman, UniProt A6QG59 30-105); test: apparent Kd from half maximum binding in ELISA
T1 construct: range 30-105; not shown: polyhistidine tag (detected with anti-HIS-tag antibody)
T1 sequence (looked up): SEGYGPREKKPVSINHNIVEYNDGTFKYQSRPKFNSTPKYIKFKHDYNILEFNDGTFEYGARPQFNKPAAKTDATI

[8] = target: T2, rEfb-O (Efb 68-98), GST-tagged recombinant protein (Staphylococcus aureus strain Newman); test: apparent Kd from half maximum binding in ELISA
T2 construct: also called Efb-O68-98; not shown: N-terminal GST tag from pGEX-5x-1
T2 chain: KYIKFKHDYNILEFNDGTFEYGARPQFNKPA

[9] = target: T3, Fibrinogen-D fragment (human, plasmin digest) (human, UniProt P02671 124-225; P02675 164-491; P02679 89-437); test: ITC (VP-ITC), peptide titrated into 10 µM Fg-D, one-site model, 27°C
T3 construct: domain: D fragment; Made by digesting human Fg with plasmin for 4 h and gel filtration; also called Fg-D; Fg-D fragment
T3 sequence 1: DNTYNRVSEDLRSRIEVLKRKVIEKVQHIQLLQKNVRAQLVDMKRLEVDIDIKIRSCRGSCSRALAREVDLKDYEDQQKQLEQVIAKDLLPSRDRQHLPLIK
T3 sequence 2: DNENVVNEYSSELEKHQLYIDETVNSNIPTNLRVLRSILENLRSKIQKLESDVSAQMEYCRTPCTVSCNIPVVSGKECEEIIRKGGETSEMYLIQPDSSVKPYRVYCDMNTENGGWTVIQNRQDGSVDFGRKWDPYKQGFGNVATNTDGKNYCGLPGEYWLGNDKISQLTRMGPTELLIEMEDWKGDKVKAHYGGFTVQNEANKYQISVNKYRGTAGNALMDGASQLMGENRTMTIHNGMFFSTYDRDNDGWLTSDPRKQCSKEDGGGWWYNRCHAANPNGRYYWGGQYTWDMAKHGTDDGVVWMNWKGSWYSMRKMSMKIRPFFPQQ
T3 sequence 3: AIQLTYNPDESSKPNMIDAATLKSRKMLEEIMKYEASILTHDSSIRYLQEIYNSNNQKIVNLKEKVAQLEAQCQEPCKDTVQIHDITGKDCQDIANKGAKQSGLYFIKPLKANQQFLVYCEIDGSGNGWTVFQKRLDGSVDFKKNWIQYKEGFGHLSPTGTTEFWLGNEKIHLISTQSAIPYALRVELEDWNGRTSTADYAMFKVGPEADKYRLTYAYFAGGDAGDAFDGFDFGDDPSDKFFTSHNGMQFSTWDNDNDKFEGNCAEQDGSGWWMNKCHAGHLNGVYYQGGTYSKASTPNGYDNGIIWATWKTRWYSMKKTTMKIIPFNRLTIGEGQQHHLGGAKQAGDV

Coa-C (Coa 311-636), GST-tagged (from UniProt P08515 1-218)
EC50 (human fibrinogen (human) [1]): 7.5 nM

Coa-R (Coa 506-636), GST-tagged (from UniProt P08515 1-218)
Kd (human fibrinogen (human) [2]): 0.8 nM

DC2-Fg, DC2 with the fibrinogen binding motif Efb-O inserted after Gln 301 (designed binder)
Kd (human fibrinogen (human) [3]): 10 nM

Efb as coated in the solid phase binding assay of the DC proteins (from UniProt A6QG59 30-165)
Kd (human fibrinogen (human) [4]): 1 nM

sCoa-RI3, synthetic peptide Coa 502-528
Kd [5]: 124 nM

sCoa-RV1, synthetic peptide Coa 610-636
Kd [5]: 139 nM

B1: FBE5-F11 (Fc fusion)
VH: QVQLQESGGGVVQPGRSLRLSCAASGFTFSSYGMHWVRQAPGKGLEWVAVISYDGSNKYYADSVKGRFTISRDNSKNTLYLQMNSLRAEDTAVYYCAKDLASSGFDYWGQGTLVTVSS
VL: QSVLTQPPSVSAAPGQKVTISCSGSSSNIGNNYVSWYQQLPGTAPKLLIYDNNKRPSGIPDRFSGSKSGTSATLGITGLQTGDEADYYCGTWDSSLSAEVFGGGTKLTVL
notes: Tested as scFv-Fc (human scFv from HAL9/HAL10 recloned into pCSE2.6-hIgG1-Fc-XP, made in HEK293-6E)
Kd [6]: ~0.1 nM | Kd [7]: ~0.1 nM | Kd [8]: ~0.1 nM

ETNAYNVTTHANGQVSYGARPTYKKPS (also called peptide CoaRI) [sCoa-RI, synthetic peptide Coa 506-532]
Kd [9]: 88 nM
